Data on one molecule can be found in paper PMC5123051, “Neutralization mechanism of a highly potent antibody against Zika virus” (Nature Communications, 2016).

The target of this assay is T1, Zika virus envelope (E) protein on purified ZIKV particles, strain H/PF/2013 (Zika virus H/PF/2013 (French Polynesia …, strain)).
T1 construct: envelope protein E of Zika virus strain H/PF/2013, cut product of the viral polyprotein, on the virus surface; Stood in the assay as whole virus particles: 180 copies of E in icosahedral symmetry, as dimers, three dimers forming a raft, 30 rafts; M protein and the lipid membrane are also present; E carries a glycan on the '150 glycan loop'; also called molecules A, B and C; source: Aedes …
Description: cryo-EM structure; Fab C10 mixed with purified ZIKV at 1.5 Fab to every E protein, 30 min at 37 °C then ~1 h on ice; pH8.0 (NTE buffer); 4.0 Å. The note with it: both partners purified.

B1: Fab C10 (Fab, V domains shown)
VH: EVQLVESGAEVKKPGASVKVSCKASGYTFTSYAMHWVRQAPGQRLEWMGWINAGNGNTKYSQKFQDRVTITRDTSASTAYMELSSLRSEDTAIYYCARDKVDDYGDYWFPTLWYFDYWGQGTLVTVS
VL: ALTQPASVSGSPGQSITISCTGTSSDVGGFNYVSWFQQHPGKAPKLMLYDVTSRPSGVSSRFSGSKSGNTASLTISGLQAEDEADYYCSSHTSRGTWVFGGGTKLTVL
notes: heavy chain variable region of C10; human IgG1 heavy chain constant region, the part that stays in the Fab after papain digestion; light chain variable region of C10; human lambda 2 light chain constant region; Fab cut from the IgG with papain; also called Fab fragment of HMAb C10; Fab regions of C10 IgG; source: C10 IgG from HEK293T cells, transiently co-transfected, protein A purified; Fab by …
On to B1, for which the “stoichiometry N” value is 180 copies of Fab per virus particle.
